Reference: patent publication US20200010563A1 (PROTHENA BIOSCIENCES, published 2020)
Where a chain is given by its changes, count along the chain named.

Experiments:
[1] = biological target: T1, human MCAM domain 3 (amino acids 244-321) hFc construct (human, UniProt P43121 244-321); assay: ForteBio BLI, MCAMhFc domains on anti-human IgG Fc sensors, antibody 5 ug/ml
T1 construct: One of the 'various MCAMhFc domains' immobilised on anti-human IgG Fc biosensors; also called MCAMhFc domain 3; not shown: human IgG Fc (hFc)
T1 sequence: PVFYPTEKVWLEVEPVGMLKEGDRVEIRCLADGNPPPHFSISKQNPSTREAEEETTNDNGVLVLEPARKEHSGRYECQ
Text: The following protocol was used: ForteBio anti-human IgG Fc biosensors were used to immobilize various MCAMhFc domains including full length MCAMhFc protein on to biosensor surface. […] After loading these samples into a black 96 well plate, the Octet Red was programmed as follows: 60 seconds for baseline #1; 180 seconds for loading various domains; 60 seconds for baseline #2; 180 seconds for association of antibody to domain; and 240 seconds for dissociation of antibody from domain.
1. MCAMhFc final concentration @ 5 ug/ml [0342] […] 3. ForteBio anti-human IgG Fc Capture (AHC) biosensors for kinetics experiments, cat#18-5060 [0344] 4. Block 96 well plate from Greiner Bio-one, cat#655209 [0345] 5. ForteBio Octet Red machine [0346] 6. Fresh tissue culture medium, DMEM with 20% FCS, was used as buffer for dilution The results from these analyses are as follows.

[2] = biological target: T2, human MCAM V340A mutant (V5/HIS6) on BHK cells (human, UniProt P43121 24-646); assay: shotgun mutagenesis library, immunofluorescence on BHK cells, triplicate; standard deviation in brackets
T2 sequence: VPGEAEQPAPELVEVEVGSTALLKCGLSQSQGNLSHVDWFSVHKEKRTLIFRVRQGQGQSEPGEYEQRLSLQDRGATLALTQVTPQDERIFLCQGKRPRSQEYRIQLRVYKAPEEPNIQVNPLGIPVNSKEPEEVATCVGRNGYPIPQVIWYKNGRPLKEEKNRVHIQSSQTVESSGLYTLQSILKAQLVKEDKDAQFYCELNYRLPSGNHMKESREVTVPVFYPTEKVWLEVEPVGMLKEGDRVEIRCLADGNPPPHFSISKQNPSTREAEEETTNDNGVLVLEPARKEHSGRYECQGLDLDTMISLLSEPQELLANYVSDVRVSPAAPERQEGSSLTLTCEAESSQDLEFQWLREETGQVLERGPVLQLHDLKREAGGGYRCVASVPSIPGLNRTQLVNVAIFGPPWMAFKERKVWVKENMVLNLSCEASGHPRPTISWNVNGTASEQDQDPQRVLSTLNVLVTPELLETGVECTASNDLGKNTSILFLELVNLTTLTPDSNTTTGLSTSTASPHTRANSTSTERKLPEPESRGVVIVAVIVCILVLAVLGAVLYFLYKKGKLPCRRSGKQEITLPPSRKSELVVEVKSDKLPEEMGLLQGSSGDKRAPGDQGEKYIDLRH
Protocol: (§1) The mutation library was assayed for surface expression (mouse sera binding) and monoclonal antibody binding, in triplicate. Each raw data point was background-subtracted and normalized to the wild type MCAM reactivity values. The mean monoclonal antibody binding value for each clone is plotted as a function of its mean surface expression value (FIG. 1, gray diamonds). Thresholds of <30% monoclonal antibody reactivity and >50% mouse sera binding were applied to identify clones (FIG. 1, black diamonds) that were negative for monoclonal antibody binding but positive for surface expression.
(§2) Residues involved in antibody binding were identified as those that were negative for monoclonal antibody binding (<30% WT) but positive for surface expression (>50% WT) (Table 4). The mean reactivity (and standard deviation) were determined for each critical residue.

[3] = biological target: T3, human MCAM Y318A mutant (V5/HIS6) on BHK cells (human, UniProt P43121 24-646); assay: as above
T3 sequence: T2 sequence with Y295A, A317V
Protocol: as §1, §2

[4] = biological target: T4, human MCAM C272A mutant (V5/HIS6) on BHK cells (human, UniProt P43121 24-646); assay: as above
T4 sequence: T2 sequence with C249A, A317V
Protocol: as §1, §2

[5] = biological target: T5, human MCAM C320A mutant (V5/HIS6) on BHK cells (human, UniProt P43121 24-646); assay: as above
T5 sequence: T2 sequence with C297A, A317V
Protocol: as §1, §2

[6] = biological target: T6, human MCAM W377A mutant (V5/HIS6) on BHK cells (human, UniProt P43121 24-646); assay: as above
T6 sequence: T2 sequence with A317V, W354A
Protocol: as §1, §2

[7] = biological target: T2, human MCAM V340A mutant (V5/HIS6) on …; assay: shotgun mutagenesis, immunofluorescence on BHK cells
Protocol: as §1, §2

B1: mouse anti-human MCAM monoclonal antibody clone 1414.1.2 (antibody, V domains shown)
VH: EIQLQQTGPELVKPGASVKISCKASGYSFTDYIMLWVKQSHGKSLEWIGNINPYSGSSGYNLKFKGKATLTVDKSSSTAYMQLNSLTSEDSAVYYCARGKDFAMDYWGQGTSVTVSS
VL: DIVMSQSPSSLAVSAGEKVTMSCKSSQSLLNSSTRKNFLAWYQQKPGQSPKLLIYWASTRESGVPDRFTGSGSGTDFTLTISSVQAEDLAVYYCKQSYNRYTFGGGTKLEIK
notes: Mouse hybridoma monoclonal
Question: Does B1 bind [1]?
Answer: Result: binds

B2: mouse anti-human MCAM monoclonal antibody clone 1749.1.3 (antibody, V domains shown)
VH: DVKLVESGGDLVKPGGSLKLSCAASGFTFSSYIMSWVRQTPEKRLEWVATISSGGSSTYYPDSVKGRFTISRDNAKNTLYLQMSSLKSEDTAMYYCTRDDDYDVKVFAYWGQGTLVTVSA
VL: B1 VL with S22N, Q27R, S33R, T34I, F38Y, R100L, Y101L, G105A, I111L
notes: Mouse hybridoma monoclonal; also called m1749
Question: Which results are given for B2?
Answer: mean reactivity (% of wild type MCAM) [2]: 8.7 % of WT; mean reactivity (% of wild type MCAM) [3]: 7.1 % of WT; mean reactivity (% of wild type MCAM) [4]: 7.6 % of WT; mean reactivity (% of wild type MCAM) [5]: 9.3 % of WT; mean reactivity (% of wild type MCAM) [6]: 13.7 % of WT; binding result [7]: no binding (tested: <30% WT; 0.5 µg/mL antibody)

B3: mouse anti-human MCAM monoclonal antibody clone 1174.1.3 (antibody, V domains shown)
VH: QIQLVQSGPELKKPGETVKISCKASGYTFTNYGMNWVKQAPGKGLKWMGWINTYTGEPTYADDFKGRFALSLETSASTAYLQINNLKNEDMATYFCARYRYNKYERAMDYWGQGTSVTVSS
VL: DIVLTQSPASLAVSLGQRATISCRASKSVSTSGYSYMYWYQQKPGQPPKLLIYLASNLESGVPARFSGSGSGTDFTLNIHPVEEEDAATYYCQHSRELPFTFGSGTKLEIK
notes: Mouse hybridoma monoclonal
Question: Does B3 bind [1]?
Answer: Result: binds

B4: mouse anti-human MCAM monoclonal antibody clone 1415.1.1 (antibody, V domains shown)
VH: QVQLQQPGAELVQPGAPVKLSCKASGYIFTSYWMNWVKQRPGRGLEWIGRIDPSDSKIHYNQKFKDKATLTVDRSSSTAYIQLGSLTSEDSAVYYCAKEGGLRRGDYAMDYWGQGTSVTVSS
VL: DIVMTQSPATLSVTPGDRVSLSCRASQSISDYLHWYQQKSHESPRLLIKYASQSISGIPSRFSGSGSGSDFTLSINSVEPEDVGVYYCQNGHNFPRTFGGGTKLEIK
notes: Mouse hybridoma monoclonal
Question: Does B4 bind [1]?
Answer: Result: binds
